T1: human GIP receptor (human) (UniProt P48546)
T1 sequence (looked up): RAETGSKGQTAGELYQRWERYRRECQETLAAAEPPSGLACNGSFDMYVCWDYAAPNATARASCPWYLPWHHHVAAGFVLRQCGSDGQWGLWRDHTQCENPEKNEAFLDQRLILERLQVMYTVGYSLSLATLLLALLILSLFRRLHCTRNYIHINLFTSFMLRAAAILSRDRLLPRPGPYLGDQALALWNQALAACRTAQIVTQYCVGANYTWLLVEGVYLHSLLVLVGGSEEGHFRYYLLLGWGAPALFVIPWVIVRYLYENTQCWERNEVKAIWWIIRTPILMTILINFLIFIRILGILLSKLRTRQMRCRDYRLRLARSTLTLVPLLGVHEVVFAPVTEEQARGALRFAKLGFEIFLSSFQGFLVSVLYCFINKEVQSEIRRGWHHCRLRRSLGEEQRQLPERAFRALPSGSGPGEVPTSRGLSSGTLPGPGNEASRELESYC

B1: Example 682 (peptide)
chain: YXQGTXTSDXSIXLDXKAQXXFIEXLIEGGPSSGEPPPSGE
modifications: synthetic construct; SITE 2: note = 2-Aminoisobutyric Acid; SITE 6: note = alpha-methyl-2-fluoro-L-phenylalanine; SITE 10: note = 3-(4-Pyridyl)-L-alanine; SITE 13: note = alpha-methyl-leucine; SITE 16: note = L-ornithine; SITE 17: note = Lysine is chemically modified through conjugation of the epsil
B2: Example 672 (peptide)
chain: YXQGTXTSDXXIXLDXKAAXEFIEXLLEGGPSSGAPPPSGS
modifications: synthetic construct; SITE 2: note = 2-Aminoisobutyric Acid; SITE 6: note = alpha-methyl-2-fluoro-L-phenylalanine; SITE 10: note = 3-(4-Pyridyl)-L-alanine; SITE 11: note = alpha-methyl-L-serine; SITE 13: note = alpha-methyl-leucine; SITE 16: note = L-ornithine; SITE 17: note = Lysine is chemically mo
B3: Example 695 (peptide)
chain: B2 chain with L27V, A35E
modifications: synthetic construct; SITE 2: note = 2-Aminoisobutyric Acid; SITE 6: note = alpha-methyl-2-fluoro-L-phenylalanine; SITE 10: note = 3-(4-Pyridyl)-L-alanine; SITE 11: note = alpha-methyl-L-serine; SITE 13: note = alpha-methyl-leucine; SITE 16: note = L-ornithine; SITE 17: note = Lysine is chemically mo
B4: Example 693 (peptide)
chain: B2 chain with L27V
modifications: synthetic construct; SITE 2: note = 2-Aminoisobutyric Acid; SITE 6: note = alpha-methyl-2-fluoro-L-phenylalanine; SITE 10: note = 3-(4-Pyridyl)-L-alanine; SITE 11: note = alpha-methyl-L-serine; SITE 13: note = alpha-methyl-leucine; SITE 16: note = L-ornithine; SITE 17: note = Lysine is chemically mo
B5: Example 697 (peptide)
chain: YXQGTXTSDXXIXLDXKAQXXFIEXLIEGGPSSGEPPPEGTGE
modifications: synthetic construct; SITE 2: note = 2-Aminoisobutyric Acid; SITE 6: note = alpha-methyl-2-fluoro-L-phenylalanine; SITE 10: note = 3-(4-Pyridyl)-L-alanine; SITE 11: note = alpha-methyl-L-serine; SITE 13: note = alpha-methyl-leucine; SITE 16: note = L-ornithine; SITE 17: note = Lysine is chemically mo
B6: Example 659 (peptide)
chain: YXQGTXTSDXSILLDKKAQXAFIEYLEEGGPSSGAPPPEGTE
modifications: synthetic construct; SITE 2: note = 2-Aminoisobutyric Acid; SITE 6: note = alpha-methyl-2-fluoro-L-phenylalanine; SITE 10: note = 3-(4-Pyridyl)-L-alanine; SITE 17: note = Lysine is chemically modified through conjugation of the epsilon-amino group of the Lysine side chain with (gamma-Glu)2-CO-(CH2)1
B7: Example 650 (peptide)
chain: YXQGTXTSDXSIXLDKKAQXXFIEYLAEGGPSSGEPPPEGSEE
modifications: synthetic construct; SITE 2: note = 2-Aminoisobutyric Acid; SITE 6: note = alpha-methyl-2-fluoro-L-phenylalanine; SITE 10: note = 3-(4-Pyridyl)-L-alanine; SITE 13: note = alpha-methyl-leucine; SITE 17: note = Lysine is chemically modified through conjugation of the epsilon-amino group of the Lysine
B8: Example 653 (peptide)
chain: B7 chain with A27Q
modifications: synthetic construct; SITE 2: note = 2-Aminoisobutyric Acid; SITE 6: note = alpha-methyl-2-fluoro-L-phenylalanine; SITE 10: note = 3-(4-Pyridyl)-L-alanine; SITE 13: note = alpha-methyl-leucine; SITE 17: note = Lysine is chemically modified through conjugation of the epsilon-amino group of the Lysine
B9: Example 652 (peptide)
chain: B7 chain with A27T
modifications: synthetic construct; SITE 2: note = 2-Aminoisobutyric Acid; SITE 6: note = alpha-methyl-2-fluoro-L-phenylalanine; SITE 10: note = 3-(4-Pyridyl)-L-alanine; SITE 13: note = alpha-methyl-leucine; SITE 17: note = Lysine is chemically modified through conjugation of the epsilon-amino group of the Lysine
B10: Example 656 (peptide)
chain: B5 chain with I27Q, G42E
modifications: acyl linker with epsilon-Lys; synthetic construct; SITE 2: note = 2-Aminoisobutyric Acid; SITE 6: note = alpha-methyl-2-fluoro-L-phenylalanine; SITE 10: note = 3-(4-Pyridyl)-L-alanine; SITE 11: note = alpha-methyl-L-serine; SITE 13: note = alpha-methyl-leucine; SITE 16: note = L-ornithine; SITE 17: note = Lysine is chemically mo
B11: Example 651 (peptide)
chain: B7 chain with A27S
modifications: synthetic construct; SITE 2: note = 2-Aminoisobutyric Acid; SITE 6: note = alpha-methyl-2-fluoro-L-phenylalanine; SITE 10: note = 3-(4-Pyridyl)-L-alanine; SITE 13: note = alpha-methyl-leucine; SITE 17: note = Lysine is chemically modified through conjugation of the epsilon-amino group of the Lysine
B12: Example 63 (peptide)
chain: YXQGTFTSDFSXXLDKKAQXAFIEYLLEGGPSSGAPPPGGE
modifications: synthetic construct; SITE 2: note = 2-Aminoisobutyric Acid; SITE 12: note = L-ornithine; SITE 13: note = alpha-methyl-leucine; SITE 17: note = Lysine is chemically modified through conjugation of the epsilon-amino group of the Lysine side chain with (2-[2-(2-Amino-ethoxy)-ethoxy]-acetyl)-(gamma-Glu)

Residue numbers refer to the chain shown, from its start.

Chain of hGLP-1R (P43220 24-463): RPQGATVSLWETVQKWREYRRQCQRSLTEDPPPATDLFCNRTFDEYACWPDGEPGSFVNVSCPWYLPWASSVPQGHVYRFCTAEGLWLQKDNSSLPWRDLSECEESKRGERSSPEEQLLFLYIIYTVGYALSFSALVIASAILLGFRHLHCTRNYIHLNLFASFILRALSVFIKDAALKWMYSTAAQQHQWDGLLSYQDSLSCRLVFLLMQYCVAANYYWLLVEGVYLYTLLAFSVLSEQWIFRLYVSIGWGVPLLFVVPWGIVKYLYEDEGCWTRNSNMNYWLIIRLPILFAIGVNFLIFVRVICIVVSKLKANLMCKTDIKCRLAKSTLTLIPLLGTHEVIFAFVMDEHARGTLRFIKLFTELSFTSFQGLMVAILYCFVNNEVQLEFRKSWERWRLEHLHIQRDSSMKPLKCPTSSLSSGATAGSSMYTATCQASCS
Chain of human glucagon receptor (human) (P47871 26-477): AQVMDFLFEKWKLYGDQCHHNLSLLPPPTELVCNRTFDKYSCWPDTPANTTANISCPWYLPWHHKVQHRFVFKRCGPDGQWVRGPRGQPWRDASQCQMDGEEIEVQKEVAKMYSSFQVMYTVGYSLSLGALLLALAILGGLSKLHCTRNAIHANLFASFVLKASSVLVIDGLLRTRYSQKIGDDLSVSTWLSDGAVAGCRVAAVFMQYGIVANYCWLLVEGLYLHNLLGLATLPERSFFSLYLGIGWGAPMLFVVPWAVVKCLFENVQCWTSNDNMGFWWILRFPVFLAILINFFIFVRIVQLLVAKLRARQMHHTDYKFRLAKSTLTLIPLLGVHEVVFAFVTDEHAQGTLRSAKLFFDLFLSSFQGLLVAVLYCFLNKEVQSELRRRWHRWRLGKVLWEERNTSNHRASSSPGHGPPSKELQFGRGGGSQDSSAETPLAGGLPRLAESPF

The first assay concerns the target hGLP-1R (Homo sapiens, UniProt P43220). The assay is described as follows: cell-based or functional assay.
B1 showed a cAMP Rel EC50 (1% HSA) of 14 nM.
Same read-out and setting: in the case of B2 it was 49.4 nM; in that of B3, 19.5 nM; in that of B4, 18 nM.
B5 registered a Relative cAMP EC50 of 0.235 nM and a cAMP Rel EC50 (1% HSA) of 18.2 nM.
The molecule B6 showed a cAMP Rel EC50 (1% HSA) of 81.5 nM.
In the case of B7, the cAMP Rel EC50 (1% HSA) amounted to 31.4 nM.
On the same count and under the same terms, next, B8: 25 nM; B9: 26.8 nM.
Molecule B10 came in with a cAMP Rel EC50 (1% HSA) of 119 nM.
B11 yielded a cAMP Rel EC50 (1% HSA) of 53.9 nM.
As to B12, the Relative cAMP EC50 worked out at 4.78 nM and the cAMP Rel EC50, nM (in the presence of 1% HSA) was found to be 348 nM.

Another assay addresses human glucagon receptor (human) (UniProt P47871). The experiment in a line: cell-based or functional assay.
For B1, the cAMP Rel EC50 (1% HSA) worked out at 127 nM.
Take B2: the cAMP Rel EC50 (1% HSA) came to 162 nM.
In turn, B3 showed a cAMP Rel EC50 (1% HSA) of 164 nM.
As for B4, the cAMP Rel EC50 (1% HSA) turned out to be 304 nM.
B5 showed a Relative cAMP EC50 of 1.71 nM and a cAMP Rel EC50 (1% HSA) of 130 nM.
Turning to B6, the cAMP Rel EC50 (1% HSA) was determined as 735 nM.
B7 had a cAMP Rel EC50 (1% HSA) of 574 nM.
Take B8: the cAMP Rel EC50 (1% HSA) turned out to be 542 nM.
Same read-out and setting: next, B9: 764 nM; B10: 662 nM; B11: 639 nM.
Turning to B12, the Relative cAMP EC50 was determined as 4.1 nM and the cAMP Rel EC50, nM (in the presence of 1% HSA) is 709 nM.

Another assay has as its target T1, human GIP receptor (human). The assay is described as follows: cell-based or functional assay.
Turning to B1, the cAMP Rel EC50 (1% HSA) was determined as 0.415 nM.
Still for that read-out and setting: next, B2: 1.53 nM.
In the case of B3, the cAMP Rel EC50 (1% HSA) came out at 0.772 nM.
On the same count and under the same terms, in the case of B4 it was 1.1 nM.
The molecule B5 gave a Relative cAMP EC50 of 0.0109 nM and a cAMP Rel EC50 (1% HSA) of 0.607 nM.
B6 registered a cAMP Rel EC50 (1% HSA) of 5.75 nM.
Same read-out and setting: next, B7: 3.1 nM; B8: 1.38 nM; B9: 1.92 nM.
Turning to B10, the cAMP Rel EC50 (1% HSA) worked out at 7.13 nM.
On the same count and under the same terms, in the case of B11 it was 6.3 nM.
Turning to B12, the Relative cAMP EC50 turned out to be 0.255 nM and the cAMP Rel EC50, nM (in the presence of 1% HSA) was determined as 40.4 nM.

The values are drawn from patent publication US20240270821A1, “GIP/GLP1/GCG TRI-RECEPTOR AGONISTS AND USES THEREOF” (priority 2023, published 2024).
